Data set [1] has as its target RneN396, the catalytic core of Anabaena RNase E (1-396 aa) (Anabaena PCC 7120). As to the kind of experiment: SPR; Biacore, 25°C, PBS pH 7.4; RneN396 (2 uM) immobilized on a streptavidin-coated sensor chip; RebA injected at 0-1000 nM; steady-state affinity. On the technique in general: In SPR one partner is held on a chip, and binding of the other changes the refractive index at the surface.

The target of data set [2] is RneN412, the catalytic region of Anabaena RNase E (1-412 aa) (Anabaena PCC 7120).
For data set [3], the target named is RneN396, the catalytic core of Anabaena RNase E (1-396 aa) (Anabaena PCC 7120). As to the kind of experiment: native gel or EMSA; RneN396, RebA and their mixture incubated for 30 min and separated on a native gel; the band of the complex excised and analysed by SDS-PAGE beside defined molar ratios, bands quantified with ImageJ.
Another data set deals with RebA (Anabaena PCC 7120, UniProt A0ABR7ZDZ7 1-423). As to the kind of experiment: EMSA; RebA up to 50-fold molar excess; 2 mM EDTA; 20 mM Tris-HCl pH 8.0, 200 mM NaCl, 0.1 mM DTT, 2 mM EDTA, 5% glycerol, 1 mg/ml BSA; 30 min at 30 C; 5% native PAGE at 4 C. The note with it: protein: recombinant; tags: N-terminal Strep tag; label: 3' FAM. In general terms: Mobility shift assays separate free from complexed probe on a gel.

For data set [4], the target named is T1, RneN396, the catalytic core of Anabaena RNase E (1-396 aa) (Anabaena PCC 7120).
T1 chain: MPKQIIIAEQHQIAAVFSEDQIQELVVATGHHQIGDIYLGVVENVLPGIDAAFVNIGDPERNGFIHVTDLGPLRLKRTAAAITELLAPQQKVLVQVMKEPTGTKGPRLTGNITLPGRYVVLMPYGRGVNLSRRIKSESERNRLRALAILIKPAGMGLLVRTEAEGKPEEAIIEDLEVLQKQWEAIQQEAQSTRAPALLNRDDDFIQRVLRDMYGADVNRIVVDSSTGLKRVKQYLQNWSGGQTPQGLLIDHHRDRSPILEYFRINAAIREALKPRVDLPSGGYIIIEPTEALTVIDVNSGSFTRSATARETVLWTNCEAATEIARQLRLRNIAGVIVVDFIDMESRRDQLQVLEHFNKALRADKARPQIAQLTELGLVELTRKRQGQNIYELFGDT
Kind of data set: BLI. Background: BLI is a label-free optical method that tracks binding on a fibre tip over time.

“full-length RebA bearing an N-terminal Strep tag (recombinant) (natural protein)”: the Kd – broadly, a measure of binding affinity in units of concentration – in data set [1] was 10.3 nM. Further, in data set [2], the cleavage of 5′ p-LU13-FAM by RneN412 (0.4 nM) with increasing RebA: ratio of RebA to RneN412 for half-inhibition (RebA:RneN412 ratio) came out at 1 and the cleavage of 5′ p-LU13-FAM by RneN412 with increasing RebA (up to a RebA:RneN412 ratio of 4:1): drop of activity came to 90%. Besides, in data set [3], the stoichiometry N (as a rule, a count of units in the complex or per binding partner) is 1 RneN396:RebA.
As for GAGACAGUAUUUG (ssRNA, 5' monophosphate) [5' p-LU13-FAM], the binding result with RebA is “no binding”.

B1: full-length RebA bearing an N-terminal Strep tag (recombinant) (natural protein)
chain: MRKLTNSDKQEILKLYRETAETTSTLAERYDVSNSTISRLLKSTLPEDEYEFLVSLKRAARTPEGRAQVSYDQIPFVGQPEEAPVISTQKVELPEPITKPEPSRVEDKPTPVIRKGRQAKPAPLPEENPQPLLAEEEKPTPVIRRGRQAKPAPLPEEEKPTPVIRKARQAKPEFFAEEEEKPTPVIRKARQAKPEFFAEEEEKPTPVIRRVRRRSASEEEDREPIARQLEIPVGKPQEIISVSSPSLEDETAEVTPMGYAPPQVIAEMLGEDLLDESEDLDDLEEDLDEDLDEEDYEDEEDDLEEARPLVTRRRFGDAAVQVLPLSVASLPKTCYLVIDRSSELITRPLKDFGDLGQIPSLETQQRTLPIFDNHRVAKRFSTKRDRVIKVPDSRMLHKARTHLQAKGITRLLIDGQVYSLSLV
As to B1, the koff (in general, the first-order rate constant of dissociation) in data set [4] came to 0.000112 s⁻¹.

Source of the values: PMC10783494, “A conserved protein inhibitor brings under check the activity of RNase E in cyanobacteria”.
